Patent US20110166062A1 (INDIANA UNIVERSITY RESEARCH AND TECHNOLOGY, published 2011)
Bridges are numbered along the chain shown (N, C = ends). Where no end group is shown, it is not given here. [ ]: non-standard residue; d: D form. Aib = CC(C)(N)C(=O)O

Columns and labels:
Assay in all cases: cell-based or functional assay
[1] = molecular target: GLP-1 receptor (UniProt P43220 24-463, limits assumed)
[2] = molecular target: glucagon receptor (UniProt P47871 26-477, limits assumed)
[3] = molecular target: T1, GIP receptor (UniProt P48546 22-466)
T1 sequence (looked up): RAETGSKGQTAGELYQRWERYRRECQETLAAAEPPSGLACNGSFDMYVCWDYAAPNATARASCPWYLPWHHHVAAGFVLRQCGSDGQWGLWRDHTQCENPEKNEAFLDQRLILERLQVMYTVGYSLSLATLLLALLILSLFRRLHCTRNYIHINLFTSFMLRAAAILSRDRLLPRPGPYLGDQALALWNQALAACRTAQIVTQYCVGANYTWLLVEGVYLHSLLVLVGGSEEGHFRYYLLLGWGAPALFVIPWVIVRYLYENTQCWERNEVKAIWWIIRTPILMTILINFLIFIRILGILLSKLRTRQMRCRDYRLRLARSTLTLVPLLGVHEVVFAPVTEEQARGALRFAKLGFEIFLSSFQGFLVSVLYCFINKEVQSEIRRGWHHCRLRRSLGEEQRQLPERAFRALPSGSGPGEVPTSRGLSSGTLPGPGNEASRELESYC

Chain of glucagon receptor (P47871 26-477 limits assumed): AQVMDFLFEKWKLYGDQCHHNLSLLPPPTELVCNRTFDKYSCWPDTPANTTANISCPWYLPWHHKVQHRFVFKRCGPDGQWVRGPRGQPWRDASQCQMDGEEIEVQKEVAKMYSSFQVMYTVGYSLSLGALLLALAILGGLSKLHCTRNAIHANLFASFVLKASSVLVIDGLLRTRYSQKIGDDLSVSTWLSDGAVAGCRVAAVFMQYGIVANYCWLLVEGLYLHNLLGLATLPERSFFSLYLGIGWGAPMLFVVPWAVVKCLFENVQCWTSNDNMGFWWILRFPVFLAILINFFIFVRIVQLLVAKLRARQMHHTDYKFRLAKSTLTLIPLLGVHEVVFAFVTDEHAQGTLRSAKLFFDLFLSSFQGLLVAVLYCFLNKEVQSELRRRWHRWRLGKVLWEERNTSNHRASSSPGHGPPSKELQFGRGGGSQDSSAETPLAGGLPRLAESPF

B1: mt-147 (peptide)
peptide: YSQGTFTSDYSIYLDEQAAKEFIAWLLAGGPSSGAPPPS-NH2
modifications: lactam 16-20; N-terminus assumed
SMILES: CC[C@H](C)[C@H](NC(=O)[C@H](Cc1ccccc1)NC(=O)[C@H](CCC(=O)O)NC(=O)[C@@H]1CCCCNC(=O)CC[C@H](NC(=O)[C@H](CC(=O)O)NC(=O)[C@H](CC(C)C)NC(=O)[C@H](Cc2ccc(O)cc2)NC(=O)[C@@H](NC(=O)[C@H](CO)NC(=O)[C@H](Cc2ccc(O)cc2)NC(=O)[C@H](CC(=O)O)NC(=O)[C@H](CO)NC(=O)[C@@H](NC(=O)[C@H](Cc2ccccc2)NC(=O)[C@@H](NC(=O)CNC(=O)[C@H](CCC(N)=O)NC(=O)[C@H](CO)NC(=O)[C@@H](N)Cc2ccc(O)cc2)[C@@H](C)O)[C@@H](C)O)[C@@H](C)CC)C(=O)N[C@@H](CCC(N)=O)C(=O)N[C@@H](C)C(=O)N[C@@H](C)C(=O)N1)C(=O)N[C@@H](C)C(=O)N[C@@H](Cc1c[nH]c2ccccc12)C(=O)N[C@@H](CC(C)C)C(=O)N[C@@H](CC(C)C)C(=O)N[C@@H](C)C(=O)NCC(=O)NCC(=O)N1CCC[C@H]1C(=O)N[C@@H](CO)C(=O)N[C@@H](CO)C(=O)NCC(=O)N[C@@H](C)C(=O)N1CCC[C@H]1C(=O)N1CCC[C@H]1C(=O)N1CCC[C@H]1C(=O)N[C@@H](CO)C(N)=O
EC50 [1]: 0.105 nM | relative activity [1]: 33.9% | EC50 [2]: 0.116 nM | relative activity [2]: 90.5% | EC50 [3]: 0.144 nM | relative activity [3]: 43.1%

B2: mt-148 (peptide)
peptide: YSEGTFTSDYSIYLDEQAAKEFIAWLLAGGPSSGAPPPS-NH2
modifications: lactam 16-20; N-terminus assumed
SMILES: CC[C@H](C)[C@H](NC(=O)[C@H](Cc1ccccc1)NC(=O)[C@H](CCC(=O)O)NC(=O)[C@@H]1CCCCNC(=O)CC[C@H](NC(=O)[C@H](CC(=O)O)NC(=O)[C@H](CC(C)C)NC(=O)[C@H](Cc2ccc(O)cc2)NC(=O)[C@@H](NC(=O)[C@H](CO)NC(=O)[C@H](Cc2ccc(O)cc2)NC(=O)[C@H](CC(=O)O)NC(=O)[C@H](CO)NC(=O)[C@@H](NC(=O)[C@H](Cc2ccccc2)NC(=O)[C@@H](NC(=O)CNC(=O)[C@H](CCC(=O)O)NC(=O)[C@H](CO)NC(=O)[C@@H](N)Cc2ccc(O)cc2)[C@@H](C)O)[C@@H](C)O)[C@@H](C)CC)C(=O)N[C@@H](CCC(N)=O)C(=O)N[C@@H](C)C(=O)N[C@@H](C)C(=O)N1)C(=O)N[C@@H](C)C(=O)N[C@@H](Cc1c[nH]c2ccccc12)C(=O)N[C@@H](CC(C)C)C(=O)N[C@@H](CC(C)C)C(=O)N[C@@H](C)C(=O)NCC(=O)NCC(=O)N1CCC[C@H]1C(=O)N[C@@H](CO)C(=O)N[C@@H](CO)C(=O)NCC(=O)N[C@@H](C)C(=O)N1CCC[C@H]1C(=O)N1CCC[C@H]1C(=O)N1CCC[C@H]1C(=O)N[C@@H](CO)C(N)=O
EC50 [1]: 0.098 nM | relative activity [1]: 36.2% | EC50 [2]: 4.91 nM | relative activity [2]: 2.14% | EC50 [3]: 0.095 nM | relative activity [3]: 65.3%

B3: mt-149 (peptide)
peptide: YAEGTFTSDYSIYLDEQAAKEFVNWLLAGGPSSGAPPPS-NH2
modifications: lactam 16-20; N-terminus assumed
SMILES: CC[C@H](C)[C@H](NC(=O)[C@H](CO)NC(=O)[C@H](Cc1ccc(O)cc1)NC(=O)[C@H](CC(=O)O)NC(=O)[C@H](CO)NC(=O)[C@@H](NC(=O)[C@H](Cc1ccccc1)NC(=O)[C@@H](NC(=O)CNC(=O)[C@H](CCC(=O)O)NC(=O)[C@H](C)NC(=O)[C@@H](N)Cc1ccc(O)cc1)[C@@H](C)O)[C@@H](C)O)C(=O)N[C@@H](Cc1ccc(O)cc1)C(=O)N[C@@H](CC(C)C)C(=O)N[C@@H](CC(=O)O)C(=O)N[C@H]1CCC(=O)NCCCC[C@@H](C(=O)N[C@@H](CCC(=O)O)C(=O)N[C@@H](Cc2ccccc2)C(=O)N[C@H](C(=O)N[C@@H](CC(N)=O)C(=O)N[C@@H](Cc2c[nH]c3ccccc23)C(=O)N[C@@H](CC(C)C)C(=O)N[C@@H](CC(C)C)C(=O)N[C@@H](C)C(=O)NCC(=O)NCC(=O)N2CCC[C@H]2C(=O)N[C@@H](CO)C(=O)N[C@@H](CO)C(=O)NCC(=O)N[C@@H](C)C(=O)N2CCC[C@H]2C(=O)N2CCC[C@H]2C(=O)N2CCC[C@H]2C(=O)N[C@@H](CO)C(N)=O)C(C)C)NC(=O)[C@H](C)NC(=O)[C@H](C)NC(=O)[C@H](CCC(N)=O)NC1=O
EC50 [1]: 0.036 nM | relative activity [1]: 97.5% | EC50 [2]: 16.3 nM | relative activity [2]: 0.64% | EC50 [3]: 0.068 nM | relative activity [3]: 91.2%

B4: mt-150 (peptide)
peptide: YSQGTFISDYSIYLDEQAAKEFVNWLLAGGPSSGAPPPS-NH2
modifications: lactam 16-20; N-terminus assumed
SMILES: CC[C@H](C)[C@H](NC(=O)[C@H](CO)NC(=O)[C@H](Cc1ccc(O)cc1)NC(=O)[C@H](CC(=O)O)NC(=O)[C@H](CO)NC(=O)[C@@H](NC(=O)[C@H](Cc1ccccc1)NC(=O)[C@@H](NC(=O)CNC(=O)[C@H](CCC(N)=O)NC(=O)[C@H](CO)NC(=O)[C@@H](N)Cc1ccc(O)cc1)[C@@H](C)O)[C@@H](C)CC)C(=O)N[C@@H](Cc1ccc(O)cc1)C(=O)N[C@@H](CC(C)C)C(=O)N[C@@H](CC(=O)O)C(=O)N[C@H]1CCC(=O)NCCCC[C@@H](C(=O)N[C@@H](CCC(=O)O)C(=O)N[C@@H](Cc2ccccc2)C(=O)N[C@H](C(=O)N[C@@H](CC(N)=O)C(=O)N[C@@H](Cc2c[nH]c3ccccc23)C(=O)N[C@@H](CC(C)C)C(=O)N[C@@H](CC(C)C)C(=O)N[C@@H](C)C(=O)NCC(=O)NCC(=O)N2CCC[C@H]2C(=O)N[C@@H](CO)C(=O)N[C@@H](CO)C(=O)NCC(=O)N[C@@H](C)C(=O)N2CCC[C@H]2C(=O)N2CCC[C@H]2C(=O)N2CCC[C@H]2C(=O)N[C@@H](CO)C(N)=O)C(C)C)NC(=O)[C@H](C)NC(=O)[C@H](C)NC(=O)[C@H](CCC(N)=O)NC1=O
EC50 [1]: 3.47 nM | relative activity [1]: 1.09% | EC50 [2]: 0.036 nM | relative activity [2]: 317% | EC50 [3]: 0.232 nM | relative activity [3]: 26.7%

B5: mt-152 (peptide)
peptide: Y[Aib]QGTFTSDYSIYLDEQAAKEFVNWLLAGGPSSGAPPPS-NH2
modifications: lactam 16-20; N-terminus assumed
SMILES: CC[C@H](C)[C@H](NC(=O)[C@H](CO)NC(=O)[C@H](Cc1ccc(O)cc1)NC(=O)[C@H](CC(=O)O)NC(=O)[C@H](CO)NC(=O)[C@@H](NC(=O)[C@H](Cc1ccccc1)NC(=O)[C@@H](NC(=O)CNC(=O)[C@H](CCC(N)=O)NC(=O)C(C)(C)NC(=O)[C@@H](N)Cc1ccc(O)cc1)[C@@H](C)O)[C@@H](C)O)C(=O)N[C@@H](Cc1ccc(O)cc1)C(=O)N[C@@H](CC(C)C)C(=O)N[C@@H](CC(=O)O)C(=O)N[C@H]1CCC(=O)NCCCC[C@@H](C(=O)N[C@@H](CCC(=O)O)C(=O)N[C@@H](Cc2ccccc2)C(=O)N[C@H](C(=O)N[C@@H](CC(N)=O)C(=O)N[C@@H](Cc2c[nH]c3ccccc23)C(=O)N[C@@H](CC(C)C)C(=O)N[C@@H](CC(C)C)C(=O)N[C@@H](C)C(=O)NCC(=O)NCC(=O)N2CCC[C@H]2C(=O)N[C@@H](CO)C(=O)N[C@@H](CO)C(=O)NCC(=O)N[C@@H](C)C(=O)N2CCC[C@H]2C(=O)N2CCC[C@H]2C(=O)N2CCC[C@H]2C(=O)N[C@@H](CO)C(N)=O)C(C)C)NC(=O)[C@H](C)NC(=O)[C@H](C)NC(=O)[C@H](CCC(N)=O)NC1=O
EC50 [1]: 0.016 nM | relative activity [1]: 169% | EC50 [2]: 0.293 nM | relative activity [2]: 36.5% | EC50 [3]: 0.087 nM | relative activity [3]: 41.2%

B6: mt-156 (peptide)
peptide: YSQGTFTSDYSIYLDEQAAKEFVEWLLAGGPSSGAPPPS-NH2
modifications: lactam 20-24; N-terminus assumed
SMILES: CC[C@H](C)[C@H](NC(=O)[C@H](CO)NC(=O)[C@H](Cc1ccc(O)cc1)NC(=O)[C@H](CC(=O)O)NC(=O)[C@H](CO)NC(=O)[C@@H](NC(=O)[C@H](Cc1ccccc1)NC(=O)[C@@H](NC(=O)CNC(=O)[C@H](CCC(N)=O)NC(=O)[C@H](CO)NC(=O)[C@@H](N)Cc1ccc(O)cc1)[C@@H](C)O)[C@@H](C)O)C(=O)N[C@@H](Cc1ccc(O)cc1)C(=O)N[C@@H](CC(C)C)C(=O)N[C@@H](CC(=O)O)C(=O)N[C@@H](CCC(=O)O)C(=O)N[C@@H](CCC(N)=O)C(=O)N[C@@H](C)C(=O)N[C@@H](C)C(=O)N[C@H]1CCCCNC(=O)CC[C@@H](C(=O)N[C@@H](Cc2c[nH]c3ccccc23)C(=O)N[C@@H](CC(C)C)C(=O)N[C@@H](CC(C)C)C(=O)N[C@@H](C)C(=O)NCC(=O)NCC(=O)N2CCC[C@H]2C(=O)N[C@@H](CO)C(=O)N[C@@H](CO)C(=O)NCC(=O)N[C@@H](C)C(=O)N2CCC[C@H]2C(=O)N2CCC[C@H]2C(=O)N2CCC[C@H]2C(=O)N[C@@H](CO)C(N)=O)NC(=O)[C@H](C(C)C)NC(=O)[C@H](Cc2ccccc2)NC(=O)[C@H](CCC(=O)O)NC1=O
EC50 [1]: 0.246 nM | relative activity [1]: 12.2% | EC50 [2]: 2.96 nM | relative activity [2]: 6.1% | EC50 [3]: 0.919 nM | relative activity [3]: 4.41%
